Values of other authors, collected in paper PMC5394133 (Clinical Drug Investigation, 2017).
Like-named read-outs stand apart in the source and are kept apart here.

Conditions: for Maximum concentration, mean / Total exposure, mean: total insulin concentration

| Substance | Maximum concentration, ratio thigh/abdomen (0.2 U/kg s.c.) [%] | Maximum concentration, ratio upper arm/abdomen (0.2 U/kg s.c.) [%] | Total exposure, ratio thigh/abdomen (0.2 U/kg s.c.) [%] | Total exposure, ratio upper arm/abdomen (0.2 U/kg s.c.) [%] | Maximum concentration, mean (0.2 U/kg s.c., abdomen) [pmol/L] | Total exposure, mean (0.2 U/kg s.c., abdomen) [nM·h] | Maximum concentration, mean (0.2 U/kg s.c., thigh) [pmol/L] | Total exposure, mean (0.2 U/kg s.c., thigh) [nM·h] | Maximum concentration, mean (0.2 U/kg s.c., upper arm) [pmol/L] | Total exposure, mean (0.2 U/kg s.c., upper arm) [nM·h] | Maximum concentration, ratio thigh/abdomen (s.c.) [%] | Maximum concentration, ratio upper arm/abdomen (s.c.) [%] | Total exposure, ratio thigh/abdomen (s.c.) [%] | Total exposure, ratio upper arm/abdomen (s.c.) [%] | early exposure within 1 h after administration, lower for the thigh than for the abdomen (s.c.) | early exposure within 1 h after administration, lower for the upper arm than for the abdomen (s.c.) |
| --- | --- | --- | --- | --- | --- | --- | --- | --- | --- | --- | --- | --- | --- | --- | --- | --- |
| Insulin aspart | 84 | 101 | 97 | 105 | 501 | 1.3 | 422 | 1.265 | 506 | 1.361 |  |  |  |  |  |  |
| Insulin glulisine |  |  |  |  |  |  |  |  |  |  | 68 | 82 | 93 | 97 | ~ 40% | ~ 20% |
| Insulin lispro | 78 | 67 | 92 | 95 | 589 | 1.388 | 458 | 1.277 | 395 | 1.313 |  |  |  |  |  |  |
